From PMC7111323 (Cell, 2016)
Like-named read-outs stand apart in the source and are kept apart here.

B1: human NPC1 ΔLinker (full length with internal deletion of the Pro-rich segment 249…257) (natural protein)
chain: QSCVWYGECGIAYGDKRYNCEYSGPPKPLPKDGYDLVQELCPGFFFGNVSLCCDVRQLQTLKDNLQLPLQFLSRCPSCFYNLLNLFCELTCSPRQSQFLNVTATEDYVDPVTNQTKTNVKELQYYVGQSFANAMYNACRDVEAPSSNDKALGLLCGKDADACNATNWIEYMFNKDNGQAPFTITPVFSDFPVHGMEPMNNATKGCDESVDEVTAPCSCQDCSIVCGAPWTILGLDAMYVIMWITYMAFLLVFFGAFFAVWCYRKRYFVSEYTPIDSNIAFSVNASDKGEASCCDPVSAAFEGCLRRLFTRWGSFCVRNPGCVIFFSLVFITACSSGLVFVRVTTNPVDLWSAPSSQARLEKEYFDQHFGPFFRTEQLIIRAPLTDKHIYQPYPSGADVPFGPPLDIQILHQVLDLQIAIENITASYDNETVTLQDICLAPLSPYNTNCTILSVLNYFQNSHSVLDHKKGDDFFVYADYHTHFLYCVRAPASLNDTSLLHDPCLGTFGGPVFPWLVLGGYDDQNYNNATALVITFPVNNYYNDTEKLQRAQAWEKEFINFVKNYKNPNLTISFTAERSIEDELNRESDSDVFTVVISYAIMFLYISLALGHMKSCRRLLVDSKVSLGIAGILIVLSSVACSLGVFSYIGLPLTLIVIEVIPFLVLAVGVDNIFILVQAYQRDERLQGETLDQQLGRVLGEVAPSMFLSSFSETVAFFLGALSVMPAVHTFSLFAGLAVFIDFLLQITCFVSLLGLDIKRQEKNRLDIFCCVRGAEDGTSVQASESCLFRFFKNSYSPLLLKDWMRPIVIAIFVGVLSFSIAVLNKVDIGLDQSLSMPDDSYMVDYFKSISQYLHAGPPVYFVLEEGHDYTSSKGQNMVCGGMGCNNDSLVQQIFNAAQLDNYTRIGFAPSSWIDDYFDWVKPQSSCCRVDNITDQFCNASVVDPACVRCRPLTPEGKQRPQGGDFMRFLPMFLSDNPNPKCGKGGHAAYSSAVNILLGHGTRVGATYFMTYHTVLQTSADFIDALKKARLIASNVTETMGINGSAYRVFPYSVFYVFYEQYLTIIDDTIFNLGVSLGAIFLVTMVLLGCELWSAVIMCATIAMVLVNMFGVMWLWGISLNAVSLVNLVMSCGISVEFCSHITRAFTVSMKGSRVERAEEALAHMGSSVFSGITLTKFGGIVVLAFAKSQIFQIFYFRMYLAMVLLGATHGLIFLPVLLSYIGPSVNKAKSCATEERYKGTERERLLNF
B2: human NPC2 (natural protein)
chain: EPVQFKDCGSVDGVIKEVNVSPCPTQPCQLSKGQSYSVNVTFTSNIQSKSSKAVVHGILMGVPVPFPIPEPDGCKSGINCPIQKDKTYSYLNKLPVKSEYPSIKLVVEWQLQDDKNQSLFCWEIPVQIVSHL

Key:
Assay in all cases: ITC
human NPC2 = biological target: B2
[1] = biological target: T1, full-length human NPC1 (Niemann-Pick C1) (human, UniProt O15118 23-1278)
T1 sequence: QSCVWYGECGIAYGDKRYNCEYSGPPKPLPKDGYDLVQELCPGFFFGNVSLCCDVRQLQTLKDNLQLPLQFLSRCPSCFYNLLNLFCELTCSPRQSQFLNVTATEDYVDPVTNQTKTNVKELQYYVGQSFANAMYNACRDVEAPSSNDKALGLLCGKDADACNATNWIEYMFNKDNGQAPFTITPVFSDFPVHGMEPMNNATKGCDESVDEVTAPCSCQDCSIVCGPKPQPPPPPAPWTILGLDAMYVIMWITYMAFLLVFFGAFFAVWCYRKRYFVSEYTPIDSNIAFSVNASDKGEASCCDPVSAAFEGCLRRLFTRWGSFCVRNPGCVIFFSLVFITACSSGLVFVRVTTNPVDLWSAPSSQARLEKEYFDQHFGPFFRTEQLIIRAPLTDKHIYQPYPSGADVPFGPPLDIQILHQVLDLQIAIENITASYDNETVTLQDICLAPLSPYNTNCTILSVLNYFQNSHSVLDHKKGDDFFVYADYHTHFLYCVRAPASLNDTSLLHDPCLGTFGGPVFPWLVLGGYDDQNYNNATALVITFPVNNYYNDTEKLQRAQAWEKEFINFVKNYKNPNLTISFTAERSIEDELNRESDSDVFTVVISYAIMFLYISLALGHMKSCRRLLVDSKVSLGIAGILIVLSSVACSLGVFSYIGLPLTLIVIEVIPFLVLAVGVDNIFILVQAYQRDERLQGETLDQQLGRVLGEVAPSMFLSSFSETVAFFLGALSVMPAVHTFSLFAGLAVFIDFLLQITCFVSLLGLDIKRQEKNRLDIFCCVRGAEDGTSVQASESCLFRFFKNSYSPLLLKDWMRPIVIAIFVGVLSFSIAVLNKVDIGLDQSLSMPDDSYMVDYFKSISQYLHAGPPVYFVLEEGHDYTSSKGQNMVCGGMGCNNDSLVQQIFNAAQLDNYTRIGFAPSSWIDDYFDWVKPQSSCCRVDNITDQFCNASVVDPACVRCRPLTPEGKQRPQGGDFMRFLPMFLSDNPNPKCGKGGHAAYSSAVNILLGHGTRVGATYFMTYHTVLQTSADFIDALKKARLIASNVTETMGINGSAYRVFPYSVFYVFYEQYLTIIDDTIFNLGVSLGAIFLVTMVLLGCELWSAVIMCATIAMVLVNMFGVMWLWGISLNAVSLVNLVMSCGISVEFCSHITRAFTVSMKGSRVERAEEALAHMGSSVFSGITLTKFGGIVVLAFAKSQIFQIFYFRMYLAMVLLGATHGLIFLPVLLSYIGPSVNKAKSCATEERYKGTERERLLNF

[2] = biological target: T1, full-length human NPC1 (Niemann-Pick C1); remark: listed apart in the source

Row | Binder | Kd (human NPC2) | Kd [1] | Kd [2]
1 | B1 | 266 ± 25.5 µM | – | –
2 | B2 | – | 15.8 ± 1.2 µM | 217 ± 35.3 µM
